The record followed here is patent US20200339684A1 (published 2020).

The target in assay [1] is T1, human CD83 on the cell surface (KM-H2, L428, FDCP1 and BB88 cells transfected with full length human CD83) (human, UniProt Q01151 20-205).
T1 sequence (looked up): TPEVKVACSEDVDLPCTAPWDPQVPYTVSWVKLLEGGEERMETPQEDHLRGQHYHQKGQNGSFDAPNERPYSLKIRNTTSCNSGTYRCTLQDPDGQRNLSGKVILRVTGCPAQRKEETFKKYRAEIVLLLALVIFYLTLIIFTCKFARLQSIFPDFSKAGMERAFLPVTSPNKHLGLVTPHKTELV
The assay can be described thus: cell-based or functional assay.

The target of assay [2] is T2, recombinant human CD83 extracellular domain with His tag (hCD83ECD-His) (human, UniProt Q01151 20-144).
T2 construct: extracellular domain; Expressed in CHO cells and purified by IMAC; also called recombinant human CD83ECD-His; recombinant CD83; not shown: His tag
T2 sequence (looked up): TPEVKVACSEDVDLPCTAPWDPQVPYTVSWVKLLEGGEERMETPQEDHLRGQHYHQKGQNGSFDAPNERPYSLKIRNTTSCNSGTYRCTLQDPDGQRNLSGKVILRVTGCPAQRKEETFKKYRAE
The assay is described as follows: BiaCore SPR, Fab over immobilised hCD83ECD, 1:1 model with mass transfer. As to the method: (§1) Fab fragments were generated by papain digestion with Pierce Fab MicroFab Preparation Kit, as per the manufacturer's instructions except that the kit-provided Protein A resin was replaced with MAbSelect SuRE resin (Seldon et al., J. Biomol. Tech. 22: 50-2, 2011). Fab were diluted in HBS-EP buffer consisting of 10 mM Hepes, 150 mM Sodium Chloride, 3 mM EDTA, and 0.005% Polysorbate 20 (GE Healthcare). Diluted Fab were assessed for affinity using a BiaCore3000 (GE Healthcare) instrument equipped with a CMS chip coupled with 100 Resonance Units (RU) of hCD83ECD-His protein, using the Kinetic Analysis wizard protocol. Kinetic rates were estimated using BiaEvaluation Software (GE Healthcare) using the inbuilt 1:1 binding model with mass transfer limitations.
(§2) FIG. 7A graphically highlights these improvements of 3C12.C binding relative to 3C12.WT, as higher binding signal intensity (i.e., RU) is achieved using reduced concentrations of the VL shuffled variant during the […] Kₒₙ-dependent Association Phase. Similarly, a slower off-rate is observed for 3C12.C Fab during the Koff-dependent dissociation phase.

The target in assay [3] is T2, recombinant human CD83 extracellular …. The assay can be described thus: Biacore SPR, Fab. How it is done:
as §1, §2

The target is the same in assay [4]. The assay is described as follows: BiaCore SPR, Fab over immobilised hCD83ECD. How it is done:
as §1
Background: Surface plasmon resonance follows binding to a sensor surface in real time, without labels.

B1: 3C12.C IgG (affinity matured, VL shuffled variant of 3C12, human IgG1 kappa) (antibody, V domains shown)
VH: EVQLQESGGGVVQPGRSLRLSCAASGFTFSSYAMHWVRQAPGKGLEWVAVISYDGSNKYYADSVKGRFTISRDNSKNTLYLQMNSLRAEDTAMYYCARHYYYGMDVWGQGTTLTVSS
VL: EIVLTQSPSSLSASVGDRVTITCRASQGIRNYLAWYQQKPGKVPKLLIYATSTLQSGVPSRFSGSRSGTEFTLTISSLHPEDFATYYCQQVDRFPYTFGQGTKVELKR
Regarding B1, the “ADCC potency in a chromium release assay, fold against 3C12.WT” value in assay [1] was more than 25 fold.

B2: 3C12.C Fab fragment (Fab, V domains shown)
VH: B1 VH
VL: B1 VL
Usually Kd stands for the concentration at which binding is half-saturated. The koff is the first-order rate constant of dissociation. For orientation: kon means the second-order rate constant of association. Take B2: in assay [2], the Kd is 6.1 nM, the koff is 0.0078 s⁻¹ and the kon is 1.3e+06 M⁻¹ s⁻¹.

B3: 3C12.B Fab fragment (Fab, V domains shown)
VH: B1 VH
VL: EVVMTQSPSFLSASIGDRVSITCRTSQGISNHLAWYQQKPGKAPKLLIYAASSLQSGVPSRFSGSGSGTDFTLTISSLQPEDIATYYCQQVNSYPYTFGQGTRLELKR
For B3, the “fold reduction in on-rate relative to 3C12 wildtype” value in assay [3] is approximately 3 fold. Besides, in assay [2], the Kd was 43 nM, the koff was 0.014 s⁻¹ and the kon turned out to be 320000 M⁻¹ s⁻¹.

B4: 3C12.D Fab fragment (Fab, V domains shown)
VH: B1 VH
VL: EIQMTQSPSSLSASVGDRVTITCRASQGISSWLAWYQQKPGKAPKLLIYAASSLQSGVPSRFSGSGSGTEFTLTISSLQPDDFATYYCQKLSSYPYTFGGGTKVELKR
Regarding B4, in assay [2], the Kd came to 25 nM, the koff came out at 0.027 s⁻¹ and the kon came out at 1.1e+06 M⁻¹ s⁻¹.

B5: 3C12.WT Fab fragment (Fab, V domains shown)
VH: B1 VH
VL: EIVMTQSPSLLSASLGDRVTITCRASQGIKNYFAWYQQRPGKAPKLLIYATSNLQSGVPSRFSGSGSGTEFTLTISSLQPEDFATYYCQQLGAYPLTFGGGTKLELKR
notes: also called 3C12 Fab; wildtype 3C12 Fab
For the molecule B5, in assay [4], the Kd worked out at 130 nM, the koff is 0.12 s⁻¹ and the association rate constant (kon) came out at 950000 M⁻¹ s⁻¹. Further, in assay [2], the Kd was found to be 130 nM, the koff is 0.12 s⁻¹ and the kon was determined as 900000 M⁻¹ s⁻¹.

B6: 3C12.Kif IgG (3C12 produced in the presence of kifunensine, low-fucose IgG) (antibody, V domains shown)
VH: B1 VH
VL: B5 VL
modifications: N-glycan without fucose (high mannose, predominantly GlcNAc2Man9), produced with 2 µg/mL kifunensine
For B6, in assay [1], the “ADCC potency in a chromium release assay, fold against 3C12.WT” value is more than 25 fold.

B7: 3C12.E Fab fragment (Fab, V domains shown)
VH: B1 VH
VL: EIVLTQSPSSLSASVGDRVTITCRASQGISNYLAWYQQKPGKVPKLLIYAASTLQSGVPSRFSGSGSGTHFTLTISSLQPEDVATYYCQKCNSAPYTFGQGTKVELKR
For the molecule B7, in assay [2], the Kd came to 42 nM, the koff is 0.05 s⁻¹ and the kon stood at 1.2e+06 M⁻¹ s⁻¹.
